Patent US20250034253A1 (AKESO BIOPHARMA, published 2025)

Biological target: T1, human TIGIT-mFc (human; mouse, UniProt Q495A1 22-141, limits assumed)
T1 construct: also called antigen TIGIT-mFc; TIGIT-mnFc
Experiment: BLI (Fortebio), TIGIT-mFc on AMC sensor, 37 C, 1:1 fit
Description: The sample dilution buffer was PBS (0.02% Tween-20, 0.1% BSA, pH 7.4). TIGIT-mFc was immobilized on an AMC sensor at a concentration of […] for 50 s, and the sensor was equilibrated in the buffer for 60 s. The TIGIT-mFc immobilized on the sensor was allowed to bind to the antibody at concentrations of 0.06-5 nM (three-fold dilutions) for 120 s, and the protein was dissociated in the buffer for 300 s. The sensor was regenerated in 10 mM glycine solution (pH=1.7). The detection temperature was 37° C., the detection frequency was 0.3 Hz, and the sample plate shaking rate was 1000 rpm. The data were analyzed by 1:1 model fitting to obtain affinity constants.

T1 sequence (Q495A1 other isoform, or with tags, fused parts or gaps limits assumed): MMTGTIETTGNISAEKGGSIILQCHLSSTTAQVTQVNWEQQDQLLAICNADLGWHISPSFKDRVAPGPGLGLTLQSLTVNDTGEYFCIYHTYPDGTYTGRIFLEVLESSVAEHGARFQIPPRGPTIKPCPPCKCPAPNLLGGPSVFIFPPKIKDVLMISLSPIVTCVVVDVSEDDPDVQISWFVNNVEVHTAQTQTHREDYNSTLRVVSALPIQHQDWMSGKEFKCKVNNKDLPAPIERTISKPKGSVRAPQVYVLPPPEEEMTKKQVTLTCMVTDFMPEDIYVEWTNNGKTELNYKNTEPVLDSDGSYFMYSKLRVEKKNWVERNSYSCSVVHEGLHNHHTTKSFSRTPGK

- Maximum signal height of analyte (nm): 0.16 nm
- S E(kdis): 3.46e-05 s⁻¹
B1: RG6058 (antibody, V domains shown)
VH: EVQLQQSGPGLVKPSQTLSLTCAISGDSVSSNSAAWNWIRQSPSRGLEWLGKTYYRFKWYSDYAVSVKGRITINPDTSKNQFSLQLNSVTPEDTAVFYCTRESTTYDLLAGPFDYWGQGTLVTVSS
VL: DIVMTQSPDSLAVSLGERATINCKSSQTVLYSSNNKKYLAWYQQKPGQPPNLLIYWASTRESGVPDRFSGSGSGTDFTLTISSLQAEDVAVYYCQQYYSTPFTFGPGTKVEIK
